pKd: −log10 of the molar value. Values belong to the substance of their own block, whether it stands above or below them.
Legend:
[1] = biological target: lamprey immune protein (LIP) (Lampetra japonica); test: SPR; LIP coupled to a CM5 chip (NHS/EDC, buffer pH 4.0, blocked with ethanolamine); analyte (rLAL2 or TRX) at different concentrations in HBS-EP; Biacore T200; affinity kinetics fitting
[2] = biological target: natural LAL2 protein (Lampetra japonica); test: SDS-PAGE and western blot band identified by LC-MS/MS; lamprey serum on 12% SDS-PAGE, blot with rabbit anti-LAL2 antibody; band around 40 kDa analysed by LC-MS/MS of tryptic peptides
[3] = biological target: recombinant LAL2 (rLAL2) protein (Lampetra japonica); test: SPR; rLAL2 coupled to a CM5 chip (NHS/EDC, buffer pH 4.0, blocked with ethanolamine); LIP as analyte at different concentrations in HBS-EP; Biacore T200; affinity kinetics fitting

pKd [1]: 7.25
Substance: recombinant LAL2 (rLAL2) protein (natural protein)

stoichiometry N [2]: 2
Substance: natural LAL2 protein (natural protein)

pKd [3]: 7.68
Substance: lamprey immune protein (LIP) (natural protein)
